In experiment [1] the test system is DNA sequence ACTTTA (T-box). Briefly: Electrophoretic mobility shift assay (EMSA). In kind it is binding. As to conditions: competed by cold T-wt but not by cold T-mut. Here is the method:
A non-specific complex (*) in the presence of GST-TRAITS was also formed in the presence of GST only. Labeled free DNA (F) was also indicated. […] NIH3T3 cells were transiently transfected with empty vector (PM) or vectors expressing the full-length rat TRAITS (residues 1-262 of SEQ ID NO:14), its N-terminal (residues 1-113 of SEQ ID NO:14), or its C-terminal (residues 114-262 of SEQ ID NO:14) plus pG5CAT reporter and pSV-β-gal for normalization. Assays were performed after 24 hours of transfection. The fold activation of CAT reporter is shown with S.E.M. Assays were performed in triplicate in two separate experiments.
Two oligonucleotides: T-wt: (5′-[…] GAAGCTTACGTCGCG-3′ SEQ ID NO:33) and T-mut: (5′-[…] CGAAGCTTACGTCGCG-3′ SEQ ID NO:34) were synthesized and amplified by PCR. T4 polynucleotide kinase (Promega) was used to label T-wt & T-mut by [γ-^32P] ATP (NEN). Recombinant GST-TRAITS fusion protein was incubated with 500 μg poly [dI-dC] and EMSA was performed according to the protocol provided by Gel Shift Assay System (Promega).

The next experiment relates to prostate cancer cell. In words: Effect of calreticulin overexpression on other cellular functions. In kind it is cell-based.
Another experiment has as its system PC3 cells. In words: Soft agar assay (anchorage-independent growth). As to conditions: stable overexpression in PC3 sublines. In kind it is cell-based, human. On the procedure:
FIGS. 4A-4D show the effect of calreticulin overexpression on colony formation of PC3 cells in a soft agar assay, PC3 (FIG. 4A), Mock (FIG. 4B), Crt 35 (FIG. 4C) and Crt 59 (FIG. 4). The soft agar assay was conducted in 6-well plates. The bottom agar is 2 ml 0.6% noble agar containing 1×RPMI 1640 medium supplemented with 10% fetal bovine serum (FBS). After the preparation of bottom agar, 1 ml of 0.3% top agar containing 5,000 cells and 1×RPMI 1640 medium supplemented with 10% FBS was added to form the top layer. The assay for each PC3 subline was carried out in duplicate and was repeated at least 3 times.
Colonies with greater than 125 um in diameter were counted in the quantification. Error bars represent standard error means (SEM).
Soft agar assay: The soft agar assay was conducted in 6-well plates. The bottom agar is 2 ml 0.6% noble agar containing 1×RPMI 1640 medium supplemented with 10% FBS. After the preparation of bottom agar, 1 ml of 0.3% top agar containing 5,000 cells and 1×RPMI 1640 medium supplemented with 10% FBS was added to form the top layer. The assay for each PC3 subline was carried out in duplicate and was repeated at least 3 times.

The conditions of experiment [2]: Repeat A of the Proline-rich Domain; read-out: Kd, high affinity Ca++ binding; cited from earlier work.
In experiment [3] the test system is xenograft rat Dunning AT3.1 prostate cancer cells. In words: Metastasis of AT3.1 xenografts in nude mice. In kind it is in vivo. The note with it: restoration of calreticulin expression.
Experiment [4] has as its system TSU prostate cancer cells. In words: Anchorage-independent growth of TSU cells. In kind it is cell-based, human. As to conditions: overexpression in TSU cells. An excerpt: Anchorage-independent growth in soft agar correlates with the metastatic potential of cancer cells [Cifone and Fidler, Proc. Nat. Acad. Sci. USA, 77:1039-43 (1980)].

Results on two molecules are retold here after patent US6780984B2, “Method for prognosing cancer and the proteins involved” (Northwestern University, priority 2000, dated 2004).

On to “GST-TRAITS: E. coli-purified GST-TRAITS fusion protein”, for which the “binding to labeled T-box containing DNA” value in experiment [1] was “forms a DNA-protein complex”.

B1: calreticulin: multi-functional Ca++ binding protein of the endoplasmic reticulum, human SEQ ID NO:36; overexpressed from pcDNA3.1/crt (protein)
chain: MLLSVPLLLGLLGLAVAEPAVYFKEQFLDGDGWTSRWIESKHKSDFGKFVLSSGKFYGDEEKDKGLQTSQDARFYALSASFEPFSNKGQTLVVQFTVKHEQNIDCGGGYVKLFPNSLDQTDMHGDSEYNIMFGPDICGPGTKKVHVIFNYKGKNVLINKDIRCKDDEFTHLYTLIVRPDNTYEVKIDNSQVESGSLEDDWDFLPPKKIKDPDASKPEDWDERAKIDDPTDSKPEDWDKPEHIPDPDAKKPEDWDEEMDGEWEPPVIQNPEYKGEWKPRQIDNPDYKGTWIHPEIDNPEYSPDPSIYAYDNFGVLGLDLWQVKSGTIFDNFLITNDEAYAEEFGNETWGVTKAAEKQMKDKQDEEQRLKEEEEDKKRKEEEEAEDKEDDEDKDEDEEDEEDKEEDEEEDVPGQAKDEL
The Kd is the equilibrium constant for the complex coming apart. Regarding B1, in the experiment with prostate cancer cell, the “Ca++ ionophore-induced apoptosis” value is reported as “inhibits Ca^((+))((+)) ionophore-induced apoptosis”, the cell attachment result is recorded as “enhances cell attachment” and the cell proliferation entry is given as “inhibits prostate cancer cell proliferation”. Moreover, the “colony formation in soft agar” value in the experiment with PC3 cells was “significantly inhibited the size and number of the PC3 colonies”. Also, in experiment [2], the Kd was 1600 nM. In experiment [3], the metastasis of xenograft entry was “markedly inhibits the metastasis”. For the same molecule, the anchorage-independent growth entry in experiment [4] is on record as “markedly inhibited anchorage-independent growth”.
